# Test: soluble on expression in E. coli; label from the status in PepcDB or PDB records
row,Sequence,soluble on expression in E. coli
1,ALYGNSSGGVINVTSQTGAQPPTVEASSYYGSFGTWHYGMKATGAVGDGSHAGDVDYTVSTNRFTTHGYRDHSGARKNLANARLGVRINDVSKLTLLLNSVDIKANDAGGLTADEWRDNPRQSPRGDQYNTRKNTRQTQAGLRYERQLSAQDDLSVMMYAGERETTQFQSIPRAPQLKPSHAGGVIDLTRHYQGIDTRLTHRGELLVPVTLTAGLDYENMSERRKGYENFVMVNGAPQYGEQGALRRNERNLMWNVDPYLQTQWQLTDKLSLDAGVRYSSVWFDSNDYYITPGNGDDSGDASYHKWLPAGSLKYALTDAWNVYLSAGRGFETPTINELSYRSDNQSGLNFGLKPSTNDTVEIGSKTRIGNGLFTAALFQTNTDNEIVVDSSSGGRTSYKNAGKTRRQGMELGLDQQFGESWRLKAAWTWLDATYRTNVCDDASCNGNRIPGIARNMGYASFGYQPEQGWYAGSDIRYMSDIMANDENTAKAPSWTVVGLTTGYKWSYGRMDMDLFGRIDNLFDREYVGSVIVNESNGRYYEPAPGRNYGIGLNLAWRFE,not soluble
2,EVLRVQDKYFHIKCFVCKACGCDLAEGGFFVRQGEYICTLDYQRLYGTRCFSCDQFIEGEVVSALGKTYHPDCFVCAVCRLPFPPGDRVTFNGKECMCQKCSLPVSVGSSAHLSQGLRSCGGCGTEIKNGQALVALDKHWHLGCFKCKSCGKLLNAEYISKDGLPYCEADYHAKFGIRCDSCEKYITGRVLEAGEKHYHPSCALCVRCGQMFAEGEEMYLQGSSIWHPACRQAARTEDRNKETRTSSESIISVPASSTSGSPSRVIYAKLGGEILDYRDLAALPKSKAIYDIDRPDMISYSPYISHSAGDRQSYGEGDQDDRSYKQCRTSSPSSTGSVSLGRYTPTSRSPQHYSRPGSESGRSTPSLSVLSDSKPPPSTYQQAPRHFHVPDTGVKDNIYRKPPIYRQHAARRSDGEDGSLDQDNRKKSSWLMLKGDADTRTNSPDLDTQSLSHSSGTDRDPLQRMAGDSFHSQYKIYPYDSLIVTNRIRVKLPKDVDRTRLERHLSPEEFQEVFGMSIEEFDRLALWKRNDLKKKALLF,soluble
3,MNAPIEPHRFILEPFEAHRFANLCGQFDEHLRLIEQRLAIEIRNRGNQFELIGEPRTTSAAEQLLRRLYRETKATDLSPETVHLYLQESAVENIDNPAVNEVSVSLRTRKGNIRPRGLNQQRYVKEILANDINFGIGPAGTGKTYLAVACAVDALEREQVRRILLVRPAVEAGEKLGFLPGDLAQKIDPYLRPLYDALYEMLGFEHVAKLIERQVIEIAPLAYMRGRTLNNSFIILDESQNTTLEQMKMFLTRIGFGSTAVITGDITQVDLPRGTKSGLAHVIEVLKDVPGISFTHFQPKDVVRHPLVQRIVEAYDRFEARQPKPEASGKDA,not soluble
4,MEKTVIGVVHLLPLPGSPEHTDLSAVIDKAVKDARAIEEGGADALILENYGDKPFLKEVGKETVAAMTVIACEVKRDVSIGLGINVLRNDAVAALAIAKAVNADFVRVNQLFFTSVSPEGILEGKAGEVMRYKKLVDCRAMIFADIAVKHAVHFASLEDYCLNAERSLADAVILTGKTTGGEVSLEELKYAKKTLKMPVLAGSGVNAENAARILKWCDGVIVGTYIKRGGLVDAERVRRIVRAAKGLEHHHHHH,not soluble
5,MLEWRGDKYVNGYYPVSSSAPDLLLECISNESKKYLPGELIAVECKWRSTVNFFIPKSDAEKYEKYFRTNKTRYRVKHLFYLFGFGWSDNAPESVYIIPSTALYEYDENTFEITFPNGELIKDKKIRMEDYKMKFKNLIYTVPENRKHLSYQTKSFDTKKKDEPMQR,not soluble
6,YGHNELPAEEGKSLWELVIEQFEDLLVRILLLAACISFVLAW,soluble
7,MGSDKIHHHHHHVTVSAFVLLLCRRAIVTLDSTPAFSTDPELICFSSRFQDEMEMYAPAEVVAHYLDRHEEWFRRCAEPMATTSIGKDAYAIVLGRYGSLGFEVEPQIGLELLPADQGVYRICTVPVPGYESQGYQVDFQASLSLDRLTHETEAPVTEATAVAWDLLLTVGIRLPRFIHVLPQKLVHSTGDHLLRQIVRQTSRRLTHRVQEDFHQQLNLPLPPRRHARF,not soluble
8,PLSQVVRFHASSGTTGKPTVVGYTANDIRNWVESLCRALVSCGVSSDDIMQIAYGYGLFTGGLGFHYAAERLGATVLPISAGNTARQIELMKDLGSTVMACTPSYMIYLAEYASQMGVDIAEDTNLRAGIFGAEPWSEETRKRIEDKTGITAYDVYGTSELSGPLFTECTER,not soluble
9,MGSSHHHHHHSSGLVPRGSHMASASAAGGQQSFDLLVIGGGSGGLACAKEAAQLGKKVAVADYVEPSPRGTKWGLGGTCVNVGCIPKKLMHQAALLGGMIRDAHHYGWEVAQPVQHNWKTMAEAVQNHVKSLNWGHRVQLQDRKVKYFNIKASFVDEHTVRGVDKGGKATLLSAEHIVIATGGRPRYPTQVKGALEYGITSDDIFWLKESPGKTLVVGASYVALECAGFLTGIGLDTTVMMRSIPLRGFDQQMSSLVTEHMESHGTQFLKGCVPSHIKKLPTNQLQVTWEDHASGKEDTGTFDTVLWAIGRVPETRTLNLEKAGISTNPKNQKIIVDAQEATSVPHIYAIGDVAEGRPELTPTAIKAGKLLAQRLFGKSSTLMDYSNVPTTVFTPLEYGCVGLSEEEAVALHGQEHVEVYHAYYKPLEFTVADRDASQCYIKMVCMREPPQLVLGLHFLGPNAGEVTQGFALGIKCGASYAQVMQTVGIHPTCSEEVVKLHISKRSGLEPTVTGCCG,soluble
10,MCGQKFELKIDNVRFVGHPTLLQHALGQISKTDPSPKREAPTMILFNVVFALRANADPSVINCLHNLSRRIATVLQHEERRCQYLTREAKLILALQDEVSAMADGNEGPQSPFHHILPKCKLARDLKEAYDR,not soluble
11,MEEAVSPLGLDVLEVHFARGELLVRLERKDERPITVADLEEASRHIEAALDREDPIPGSYRLLVESPGPKRPLFTRRHFERFQGLKAKVPGPEGFTGRILRVEGEEVVFQVGDEERRLRIGTFRANLAEWPEEPR,soluble
12,MADGINSTVTVERSDGPRHRGTAAGIGGLDLDLEDVTHKELIEARRTGDVGLVHSWELVTAVDGPGTRMTMFMSGCPLRCLYCHNPDTMGMKEGTVERVESIVKKIKRYRNVFKASGGGLTISGGEPLFQIAFTRRVLKEVHDAGIHTTIDTSGYLGARLTDEDLENIDLVLLDVKSGDEETYHRVSGGRELQPTIDFGNRLNAIGKPVWIRFVLVPGVSDAPENINNVADIVAQWKDNVERVEVLPFHNMGADKWHELGLNYELEDTKPPTQESVEFAKETFRSRGLTVY,not soluble
13,MKNDSFLDKVIGSLLSQNFQVDSNAYTYGLVKGKNDSFSGKVIDGIDVAKSILAIAQIFGSPIDSDCADFKTIFNGEGFKKDLKALYSMTDAVLYKFILGQPLIVGVVKADSLTHNEIYDITDKFDKAILGFRKYTARMKWTKCR,not soluble
14,MGSDKIHHHHHHMSRMIRFHKFGAADVLRCEEQAEPSPAADEVQIRVEAVGVSWYDVLWRQNLAPSQARLPAGIGHEMAGVVTAVGEGVDDIAVGDRVASFPATSANDHPVYGDVIVLPRTAITRYPNVLTPIEASVHYTPLLIAYFAYVDLARAKAGQTALVTDASHCAGPAFVQLGRALGLKVFAATKEAAQRDYLLGLGADKVIVTEEQDLLLQIGKYTDGRGVDMVLDGMGGPQMSLLGDVLAPRGSLVLYGLQGGNQTPFPACAAFQKNIQFYVHCIGNFTGKPELGISQDQVALQRALRDINQFTADQLLTPQIIKVYPFEQVVEAHRYMDQCPCGGRVVLDMAQH,not soluble
15,MGSDKIHHHHHHMDTRTLIYLHQYFSIPTVSGGTRSWEFSTRLVQDKWQVCMFCGDSEIHGIPAVNILKLFNTKNVSFKLNVIPLKYSNYMSFSRRIFAFLSFAVRSSLQVLREEKADLTFATSTPLTIAIPALLRKWLHGTPYIFEVRDLWPEMPIAMKAVRSPLAIFLARQLELIAYQNASHIVALSPGMKEGIVKQGISPEKVEVIPNACDNARFNISETIGLEFLRQHPELSGGPLIVYTGTFGHINGVNYLAYLASHMRNIIPEAKFLVVGSGVCESEVREASCQLGILEKNFWMWPPIPKAEMPALLSACTVATSLFKPIPEMEHNSANKFFDALAAGRPVVINYGGWQKEILEQSGAGISISSNDPKVAAIQLAKFLNSSECLQSAQAAARKLADTVFDRDILYKKLANVFQKVLNETHSDI,not soluble
